B1: 9-10A TS F87A: 9-10A TS + F87A (protein, listed as Bacillus megaterium)
chain: TIKEMPQPKTFGELKNLPLLNTDKPVQALMKIADELGEIFKFEAPGRVTRYLSSQRLIKEACDESRFDKNLSQALKFARDFAGDGLATSWTHEKNWKKAHNILLPSFSQQAMKGYHAMMVDIAVQLVQKWERLNADEHIEVSEDMTRLTLDTIGLCGFNYRFNSFYRDQPHPFIISMVRALDEVMNKLQRANPDDPAYDENKRQFQEDIKVMNDLVDKIIADRKARGEQSDDLLTQMLNGKDPETGEPLDDGNIRYQIITFLIAGHETTSGLLSFALYFLVKNPHVLQKVAEEAARVLVDPVPSYKQVKQLKYVGMVLNEALRLWPTAPAFSLYAKEDTVLGGEYPLEKGDEVMVLIPQLHRDKTVWGDDVEEFRPERFENPSAIPQHAFKPFGNGQRACIGQQFALHEATLVLGMMLKHFDFEDHTNYELDIKETLTLKPKGFVVKAKSKKIPLGGIPSPSTEQSAKKVRKKAENAHNTPLLVLYGSNMGTAEGTARDLADIAMSKGFAPQVATLDSHAGNLPREGAVLIVTASYNGHPPDNAKQFVDWLDQASADEVKGVRYSVFGCGDKNWATTYQKVPAFIDETLAAKGAENIADRGEADASDDFEGTYEEWREHMWSDVAAYFNLDIENSEDNKSTLSLQFVDSAADMPLAKMHGAFSTNVVASKELQQPGSARSTRHLEIELPKEASYQEGDHLGVIPRNYEGIVNRVTARFGLDASQQIRLEAEEEKLAHLPLAKTVSVEELLQYVELQDPVTRTQLRAMAAKTVCPPHKVELEALLEKQAYKEQVLAKRLTMLELLEKYPACEMKFSEFIALLPSIRPRYYSISSSPRVDEKQASITVSVVSGEAWSGYGEYKGIASNYLAELQEGDTITCFISTPQSEFTLPKDPETPLIMVGPGTGVAPFRGFVQARKQLKEQGQSLGEAHLYFGCRSPHEDYLYQEELENAQSEGIITLHTAFSRMPNQPKTYVQHVMEQDGKKLIELLDQGAHFYICGDGSQMAPAVEATLMKSYADVHQVSEADARLWLQQLEEKGRYAKDVWAG
modifications: cytochrome P450NADPH-P-450 reductase precursor, cytochrome P450 (BM3), CYP102A1
B2: CYP102A3: CYP102A3, related P450 from Bacillus subtilis (protein, UniProt O08336 1-1054, looked up)
Bifunctional cytochrome …: MKQASAIPQPKTYGPLKNLPHLEKEQLSQSLWRIADELGPIFRFDFPGVSSVFVSGHNLVAEVCDEKRFDKNLGKGLQKVREFGGDGLFTSWTHEPNWQKAHRILLPSFSQKAMKGYHSMMLDIATQLIQKWSRLNPNEEIDVADDMTRLTLDTIGLCGFNYRFNSFYRDSQHPFITSMLRALKEAMNQSKRLGLQDKMMVKTKLQFQKDIEVMNSLVDRMIAERKANPDENIKDLLSLMLYAKDPVTGETLDDENIRYQIITFLIAGHETTSGLLSFAIYCLLTHPEKLKKAQEEADRVLTDDTPEYKQIQQLKYIRMVLNETLRLYPTAPAFSLYAKEDTVLGGEYPISKGQPVTVLIPKLHRDQNAWGPDAEDFRPERFEDPSSIPHHAYKPFGNGQRACIGMQFALQEATMVLGLVLKHFELINHTGYELKIKEALTIKPDDFKITVKPRKTAAINVQRKEQADIKAETKPKETKPKHGTPLLVLFGSNLGTAEGIAGELAAQGRQMGFTAETAPLDDYIGKLPEEGAVVIVTASYNGAPPDNAAGFVEWLKELEEGQLKGVSYAVFGCGNRSWASTYQRIPRLIDDMMKAKGASRLTAIGEGDAADDFESHRESWENRFWKETMDAFDINEIAQKEDRPSLSITFLSEATETPVAKAYGAFEGIVLENRELQTAASTRSTRHIELEIPAGKTYKEGDHIGILPKNSRELVQRVLSRFGLQSNHVIKVSGSAHMAHLPMDRPIKVVDLLSSYVELQEPASRLQLRELASYTVCPPHQKELEQLVSDDGIYKEQVLAKRLTMLDFLEDYPACEMPFERFLALLPSLKPRYYSISSSPKVHANIVSMTVGVVKASAWSGRGEYRGVASNYLAELNTGDAAACFIRTPQSGFQMPNDPETPMIMVGPGTGIAPFRGFIQARSVLKKEGSTLGEALLYFGCRRPDHDDLYREELDQAEQDGLVTIRRCYSRVENEPKGYVQHLLKQDTQKLMTLIEKGAHIYVCGDGSQMAPDVERTLRLAYEAEKAASQEESAVWLQKLQDQRRYVKDVWTGM

Assay: P450BM3 compilation plate screen (GC, cyclopropane peaks)
Assay type: biochemical
Details: P450BM3 variants; for ee (cis): (R,S)-(S,R), chiral β-CDX GC; for de: diastereomeric excess = ([cis] − [trans])/([cis] + [trans]); for Absolute activity: sum of the area of the cyclopropane peaks over the area of the internal standard

Molecule | ee (cis) | de | Absolute activity
B1 | 5 | −60 | 0.001546
B2 | −8 | −74 | 0.004053

Reference: US20150267232A1, “IN VIVO AND IN VITRO CARBENE INSERTION AND NITRENE TRANSFER REACTIONS CATALYZED BY HEME ENZYMES” (California Institute of Technology, priority 2012, published 2015)
